B1: band 3 (natural protein, human (endogenous in RBCs), UniProt P02730 1-911, looked up)
chain: MEELQDDYEDMMEENLEQEEYEDPDIPESQMEEPAAHDTEATATDYHTTSHPGTHKVYVELQELVMDEKNQELRWMEAARWVQLEENLGENGAWGRPHLSHLTFWSLLELRRVFTKGTVLLDLQETSLAGVANQLLDRFIFEDQIRPQDREELLRALLLKHSHAGELEALGGVKPAVLTRSGDPSQPLLPQHSSLETQLFCEQGDGGTEGHSPSGILEKIPPDSEATLVLVGRADFLEQPVLGFVRLQEAAELEAVELPVPIRFLFVLLGPEAPHIDYTQLGRAAATLMSERVFRIDAYMAQSRGELLHSLEGFLDCSLVLPPTDAPSEQALLSLVPVQRELLRRRYQSSPAKPDSSFYKGLDLNGGPDDPLQQTGQLFGGLVRDIRRRYPYYLSDITDAFSPQVLAAVIFIYFAALSPAITFGGLLGEKTRNQMGVSELLISTAVQGILFALLGAQPLLVVGFSGPLLVFEEAFFSFCETNGLEYIVGRVWIGFWLILLVVLVVAFEGSFLVRFISRYTQEIFSFLISLIFIYETFSKLIKIFQDHPLQKTYNYNVLMVPKPQGPLPNTALLSLVLMAGTFFFAMMLRKFKNSSYFPGKLRRVIGDFGVPISILIMVLVDFFIQDTYTQKLSVPDGFKVSNSSARGWVIHPLGLRSEFPIWMMFASALPALLVFILIFLESQITTLIVSKPERKMVKGSGFHLDLLLVVGMGGVAALFGMPWLSATTVRSVTHANALTVMGKASTPGAAAQIQEVKEQRISGLLVAVLVGLSILMEPILSRIPLAVLFGIFLYMGVTSLSGIQLFDRILLLFKPPKYHPDVPYVKRVKTWRMHLFTGIQIICLAVLWVVKSTPASLALPFVLILTVPLRRVLLPLIFRNVELQCLDADDAKATFDEEEGRDEYDEVAMPV
notes: band 3 anion transporter of the human red blood cell membrane; bait captured with the anti-band 3 antibodies BRIC 6 and BRIC 170; Captured as native 'band 3 complexes' with no distinction between ankyrin, junctional and free complexes; also called band 3 complexes; source: endogenous, membranes of stored human RBCs and storage-induced microvesicles, 1% deoxycholate extract
B2: Flotillin-2 (natural protein, human (endogenous in RBCs), UniProt Q14254 1-428, looked up)
chain: MGNCHTVGPNEALVVSGGCCGSDYKQYVFGGWAWAWWCISDTQRISLEIMTLQPRCEDVETAEGVALTVTGVAQVKIMTEKELLAVACEQFLGKNVQDIKNVVLQTLEGHLRSILGTLTVEQIYQDRDQFAKLVREVAAPDVGRMGIEILSFTIKDVYDKVDYLSSLGKTQTAVVQRDADIGVAEAERDAGIREAECKKEMLDVKFMADTKIADSKRAFELQKSAFSEEVNIKTAEAQLAYELQGAREQQKIRQEEIEIEVVQRKKQIAVEAQEILRTDKELIATVRRPAEAEAHRIQQIAEGEKVKQVLLAQAEAEKIRKIGEAEAAVIEAMGKAEAERMKLKAEAYQKYGDAAKMALVLEALPQIAAKIAAPLTKVDEIVVLSGDNSKVTSEVNRLLAELPASVHALTGVDLSKIPLIKKATGVQV
notes: flotillin-2, human, SwissProt Q14254; source: endogenous, membranes of stored human RBCs and storage-induced microvesicles, 1% deoxycholate extract

Assays:
[1] = molecular target: the molecule itself; assay: SDS-PAGE; band around 220 kDa on Coomassie-stained SDS-PAGE of total membrane proteins and co-IP eluates from RBCs and MVs
[2] = molecular target: B1; assay: co-IP; band 3 complexes captured from 1% deoxycholate extracts of RBC membranes (short- and long-stored ECs, bags A-C) on beads coated with BRIC 6 and BRIC 170; eluates analysed by western blot (ADSL, α-adducin, flotillin-2), densitometry relative to Ponceau loading; conditions: partners not purified
[3] = molecular target: B1; assay: co-IP; band 3 complexes captured from 1% deoxycholate extracts of storage-induced microvesicles (bags D-F; compared with RBCs of the same bags) on beads coated with BRIC 6 and BRIC 170; eluates analysed by western blot for flotillin-2, densitometry; conditions: partners not purified

fold change of the amount in band 3 complexes, long-stored against short-stored ECs [2]	fold decrease of the amount in band 3 complexes, MVs against RBCs [3]	Binder	stoichiometry N [1]
–	–	B1	2
1.6 fold	1.3 fold	B2	–

Source: paper PMC5945891, “Proteomics of Stored Red Blood Cell Membrane and Storage-Induced Microvesicles Reveals the Association of Flotillin-2 With Band 3 Complexes” (Frontiers in Physiology, 2018)
